Laboratory results: patent US20240409621A1

Columns and labels:
[1] = biological target: F protein of RSV type B strain 18537 (on the virus in the neutralization assay) (respiratory syncytial virus type B, strain 18537) (UniProt P13843); assay: cell-based or functional assay
[2] = biological target: F protein of RSV A2 (on the virus in the neutralization assay) (respiratory syncytial virus, A2 strain) (UniProt P03420); assay: cell-based or functional assay

Q: With D25 (antibody) as the substance, how does the IC50 of each RSV neutralizing antibody, 18537 [1] read?
A: Its IC50 of each RSV neutralizing antibody, 18537 is 0.167 µg/mL.

Q: And the IC50 of each RSV neutralizing antibody, RSV A2 [2]?
A: The IC50 of each RSV neutralizing antibody, RSV A2 was 0.0222 µg/mL.
